Experimental data from patent publication US20090098142A1 (published 2009).
Where a chain is given by its changes, count along the chain named. Numbers in names are those of the source.

Assays:
[1] = target: T1, cynomolgus monkey IL-13 (NHP IL-13) (cynomolgus monkey, UniProt Q5I6E4 21-132 (Macaca thibetana entry)); assay: cell-based or functional assay
T1 chain: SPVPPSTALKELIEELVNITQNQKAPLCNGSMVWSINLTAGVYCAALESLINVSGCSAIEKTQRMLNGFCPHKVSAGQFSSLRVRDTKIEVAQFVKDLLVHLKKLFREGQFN

[2] = target: T2, native human IL-13 (human, UniProt P35225 34-146); assay: cell-based or functional assay
[3] = target: T1, cynomolgus monkey IL-13 (NHP IL-13); assay: direct NHP IL-13 binding ELISA
From the text: The humanized MJ 2-7 V3 and V4 were produced in COS cells by combining hMJ 2-7 VH V1 with hMJ 2-7 VL V3 and V4. The antigen binding properties of the antibodies were examined by direct NHP IL-13 binding ELISA.

[4] = target: T2, native human IL-13; assay: cell-based or functional assay; remark: listed apart in the source
[5] = target: T1, cynomolgus monkey IL-13 (NHP IL-13); assay: SPR (BIACORE), Kd=kd/ka from the kinetic rate constants
Method: (§1) For kinetic analysis, the monoclonal antibody hMJ2-7 V2-11 was captured onto the anti IgG antibody surface by injecting 40 μl of a 1 μg/ml solution. The net difference between the baseline and the point approximately 30 seconds after completion of injection was taken to represent the amount of target bound. Solutions of NHP-IL-13 at 600, 200, 66.6, 22.2, 7.4, 2.5, 0.8, 0.27, 0.09 and 0 nM concentrations were injected in triplicate at a flow rate of […] for 2 minutes, and the amount of bound material as a function of time was recorded (FIG. 8). The dissociation phase was monitored in HBS/EP buffer (10 mM HEPES, pH 7.4, containing 150 mM NaCl, 3 mM EDTA and 0.005% (v/v) Surfactant P20) for 5 minutes at the same flow rate followed by two 5 μl injections of glycine, pH 1.5, to regenerate a fully active capturing surface. All kinetic experiments were done at 22.5° C. in HBS/EP buffer. Blank and buffer effects were subtracted for each sensorgram using double referencing.

[6] = target: T1, cynomolgus monkey IL-13 (NHP IL-13); assay: SPR (BIACORE), antibody captured on goat anti-human IgG Fc, NHP-IL-13 at 0.09-600 nM injected, 1:1 model, 22.5 C
Method: as §1

[7] = target: T3, FLAG-tagged NHP IL-13 (cynomolgus monkey, UniProt Q5I6E4 21-132 (Macaca thibetana entry)); assay: competition ELISA against biotinylated mouse MJ 2-7
T3 construct: also called NHP IL-13-FLAG; FLAG NHP IL-13; not shown: FLAG tag
T3 chain: T1 chain
Method: The ability of fully humanized MJ 2-7 mAb (V1, V2 v2) to compete with biotinylated mouse MJ 2-7 Ab for binding to NHP IL-13-FLAG was evaluated by ELISA. The microtiter plates (Costar) were coated with 1 μg/ml of anti-FLAG monoclonal antibody M2 (Sigma). The FLAG NHP IL-13 protein at concentration of 10 ng/ml was mixed with 10 ng/ml of biotin labeled mouse MJ 2-7 antibody and various concentrations of unlabeled mouse and humanized MJ 2-7 antibody. The mixture was incubated for 2 hours at room temperature and then added to the anti-FLAG antibody-coated plate. Binding of FLAG NHP-IL-13/bioMJ2-7 Ab complexes was detected with streptavidin-HRP and 3,3′,5,5′-tetramethylbenzidine (TMB). […] BIACORE™ analysis also confirmed that NHP IL-13 had rapid binding to and slow dissociation to immobilized h1uMJ 2-7 v2.11.

[8] = target: T1, cynomolgus monkey IL-13 (NHP IL-13); assay: sandwich ELISA, capture antibody
From the text: FIG. 20 is a series of bar graphs depicting the increases in serum IL-13 levels in individual cynomolgus monkeys treated with humanized MJ2-7 (hMJ2-7v2-11). The label in each panel (e.g., 120-452) corresponds to the monkey identification number. The “pre” sample was collected prior to administration of the antibody. The time “0” was collected 24-hours post-antibody administration, but prior to Ascaris challenge. The remaining time points were post-Ascaris challenge. The assays used to detect IL-13 levels are able to detect IL-13 in the presence of hMJ2-7v2-11 or hmAb13.2v2 antibodies. More specifically, ELISA plates (MaxiSorp; Nunc, Rochester, N.Y.), were coated overnight at 4° C. with 0.5 ug/ml mAb13.2 in PBS. Plates were washed in PBS containing 0.05% Tween-20 (PBS-Tween). NHP IL-13 standards, or serum dilutions from cynomolgus monkeys, were added and incubated for 2 hours at room temperature. Plates were washed, and 0.3 ug/ml biotinylated MJ1-64 (referred to herein as C65 antibody) was added in PBS-Tween. Plates were incubated 2 hours, room temperature, washed, and binding detected using HRP-streptavidin (Southern Biotechnology Associates) and Sure Blue substrate (Kirkegaard and Perry Labs). For detection of IL-13 in the presence of mAb13.2, the same protocol was followed, excepts that ELISA plates were coated with 0.5 ug/ml MJ2-7.

[9] = target: T4, NHP-IL-13 in a complex with immobilized sIL-13Rα2-Fc (cynomolgus monkey; human, UniProt Q14627 27-343, limits assumed); assay: SPR (BIACORE), sIL-13Rα2-Fc amine-coupled to a CM5 chip, NHP-IL-13 injected, then antibody
T4 construct: not shown: human IgG1 Fc tail
Method: sIL-13Rα2-Fc was directly coated onto a CM5 chip by standard amine coupling. NHP-IL-13 at 100 nM concentration was injected, and its binding to the immobilized IL-13Rα2-Fc was detected by BIACORE™. An additional injection of 100 nM of anti IL-13 antibodies was added, and changes in binding were monitored.

T2 sequence (P35225 other isoform, or with tags, fused parts or gaps): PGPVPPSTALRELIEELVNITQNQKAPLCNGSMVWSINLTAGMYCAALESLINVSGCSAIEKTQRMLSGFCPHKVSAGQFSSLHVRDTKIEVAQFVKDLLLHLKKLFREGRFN

B1: mouse monoclonal antibody C65 (antibody, V domains shown)
VH: QVQLKESGPGLVAPSQSLSITCTVSGFSLTGYGVNWVRQPPGKGLEWLGIIWGDGSTDYNSALKSRLIINKDNSKSQVFLKMNSLQTDDTARYFCARDKTFYYDGFYRGRMDYWGQGTSVTVSS
VL: DVQMIQSPSSLSASLGDIVTMTCQASQGTSINLNWFQQKPGKAPKLLIFGASNLEDGVPSRFSGSRYGTNFTLTISSLEDEDMATYFCLQHSYLPWTFGGGTKLEIK
[1]
  fold decrease in monocyte CD23 expression assay, 3 ng/ml NHP IL-13; activity against that of MJ2-7 and sIL-13Rα2-Fc: ~20 fold
[2]
  fold decrease in STAT6 phosphorylation assay in HT-29 cells, 0.3 ng/ml native human IL-13; activity against that of MJ2-7: ~20 fold

B2: sIL-13Rα2-Fc (soluble human IL-13 receptor alpha2 with a human IgG1 Fc tail) (Fc fusion, UniProt Q14627 27-343, looked up, not shown: a dimerising Fc or GST)
chain: DTEIKVNPPQDFEIVDPGYLGYLYLQWQPPLSLDHFKECTVEYELKYRNIGSETWKTIITKNLHYKDGFDLNKGIEAKIHTLLPWQCTNGSEVQSSWAETTYWISPQGIPETKVQDMDCVYYNWQYLLCSWKPGIGVLLDTNYNLFYWYEGLDHALQCVDYIKADGQNIGCRFPYLEASDYKDFYICVNGSSENKPIRSSYFTFQLQNIVKPLPPVYLTFTRESSCEIKLKWSIPLGPIPARCFDYEIEIREDDTTLVTATVENETYTLKTTNETRQLCFVVRSKVNIYCSDDGIWSEWSDKQCWEGEDLSKKTLLR
[2]
  STAT6 phosphorylation assay in HT-29 cells, 0.3 ng/ml native human IL-13, IC50: 0.33 nM

B3: humanized MJ 2-7 V3 (hMJ 2-7 VH V1 with hMJ 2-7 VL V3) (antibody, V domains shown)
VH: QVQLVQSGAEVKKPGASVKVSCKASGFNIKDTYIHWVRQAPGQRLEWMGRIDPANDNIKYDPKFQGRVTITRDTSASTAYMELSSLRSEDTAVYYCARSEENWYDFFDYWGQGTLVTVSS
VL: DVVMTQSPLSLPVTLGQPASISCRSSQSLVYSDGNTYLNWFQQRPGQSPRRLIYKVSNRFSGVPDRFSGSGSGTDFTLKISRVEAEDVGVYYCFQGSHIPYTFGGGTKVEIK
notes: Produced in COS cells; VL V3: DPK18 with human germline CDR1 and CDR2 and the CDR3 of mouse MJ2-7; also called hMJ2-7 V3; Version 3
[3]
  binding result: no binding

B4: humanized MJ 2-7 V2.4 (VH V2.4 / VL V2) (antibody, V domains shown)
VH: EVQLVESGGGLVQPGGSLRLSCAASGFNIKDTYIHWVRQAPGKGLEWVGRIDPANDNIKYDPKFQGRFTISRDNAKNSLYLQMNSLRAEDTAVYYCARSEENWYDFFDYWGQGTLVTVSS
VL: DIQMTQSPSSLSASVGDRVTITCRSSQSIVHSNGNTYLEWYQQKPGKAPKLLIYKVSNRFSGVPSRFSGSGSGTDFTLTISSLQPEDFATYYCFQGSHIPYTFGGGTKVEIKR
[4]
  Native hIL-13 STAT6 assay IC 50, nM: 17.5 nM

B5: humanized MJ 2-7 V2.7 (VH V2.7 / VL V2) (antibody, V domains shown)
VH: B4 VH with R72A
VL: B4 VL
[4]
  Native hIL-13 STAT6 assay IC 50, nM: 1.7 nM

B6: humanized MJ 2-7 V2.11 IgG1 with a mutated CH2 domain (antibody, V domains shown)
VH: B4 VH with V48I, R72A, L79A
VL: B4 VL
notes: VH V2.11 (back mutations V48I); A49G; R72A; L79A; human IgG1 with mutated CH2 and human kappa; also called hMJ2-7 V2-11; huMJ 2-7 V2.11
[2]
  STAT6 phosphorylation assay in HT-29 cells, 0.3 ng/ml native human IL-13, IC50: 0.52 nM
[5]
  Kd: 0.043 nM
[6]
  koff: 0.000889 s⁻¹
  kon: 2.05e+07 M⁻¹ s⁻¹

B7: humanized MJ 2-7 V2.5 (VH V2.5 / VL V2) (antibody, V domains shown)
VH: B4 VH with G49A, R67K, F68A, R72A
VL: B4 VL
[4]
  Native hIL-13 STAT6 assay IC 50, nM: 1.75 nM

B8: humanized MJ 2-7 V2.2 (VH V2.2 / VL V2) (antibody, V domains shown)
VH: B4 VH with G49A, R67K, F68A
VL: B4 VL
[4]
  Native hIL-13 STAT6 assay IC 50, nM: > 100 nM

B9: humanized MJ 2-7 V2.1 (VH V2.1 / VL V2) (antibody, V domains shown)
VH: B4 VH with V48I
VL: B4 VL
[4]
  Native hIL-13 STAT6 assay IC 50, nM: 2.8 nM

B10: humanized MJ 2-7 V2 (CDR grafted; VH V2 / VL V2) (antibody, human IgG1, V domains shown)
VH: B4 VH with G49A
VL: B4 VL
notes: Expressed in COS cells with human IgG1 (IgG1mut) and human kappa constant regions; also called hMJ2-7 V2; huMJ 2-7 V2
[4]
  Native hIL-13 STAT6 assay IC 50, nM: > 100 nM
[7]
  binding result: binds

B11: monoclonal antibody 13.2 (mAb13.2) (antibody, mouse IgG1, V domains shown)
VH: EVKLVESGGGLVKPGGSLKLSCAASGFTFISYAMSWVRQTPEKRLEWVASISSGGNTYYPDSVKGRFTISRDNARNILYLQMSSLRSEDTAMYYCARLDGYYFGFAYWGQGTTVTVSS
VL: DIVLTQSPASLAVSLGQRATISCKASESVDNYGKSLMHWYQQKPGQSPKLLIYRASNLESGIPARFSGSGSRTDFTLTINPVEADDVATYYCQQSNEDPWTFGGGTKLEIK
[8]
  binding result: binds

B12: mouse monoclonal antibody MJ 2-7 (antibody, mouse IgG1, V domains shown)
VH: EVQLQQSGAELVKPGASVKLSCTGSGFNIKDTYIHWVKQRPEQGLEWIGRIDPANDNIKYDPKFQGKATITADTSSNTAYLQLNSLTSEDTAVYYCARSEENWYDFFDYWGQGTTLTVSS
VL: DVLMTQTPLSLPVSLGDQASISCRSSQSIVHSNGNTYLEWYLQKPGQSPKLLIYKVSNRFSGVPDRFSGSGSGTDFTLKISRVEAEDLGVYYCFQGSHIPYTFGGGTKLEIK
notes: also called mAb7.1.1; murine MJ2-7
[1]
  CD23 expression assay, non-human primate IL-13 at 1 ng/ml, IC50: ~0.242 nM
[2]
  STAT6 phosphorylation assay in HT-29 cells, 0.3 ng/ml native human IL-13, IC50: 0.48 nM
  STAT6 phosphorylation assay, native human IL-13 at 1 ng/ml, IC50: ~0.293 nM
  tenascin production assay in BEAS-2B cells, 3 ng/ml native human IL-13, IC50: ~0.1 nM
[9]
  binding result: no binding (tested: 100 nM)
